# In article PMC2946090 (Nature, 2010):
# B1: CusA efflux pump (full-length CusA membrane protein with a 6xHis tag at the N-terminus) (natural protein, E. coli, UniProt P38054 1-1047, looked up)
# chain: MIEWIIRRSVANRFLVLMGALFLSIWGTWTIINTPVDALPDLSDVQVIIKTSYPGQAPQIVENQVTYPLTTTMLSVPGAKTVRGFSQFGDSYVYVIFEDGTDPYWARSRVLEYLNQVQGKLPAGVSAELGPDATGVGWIYEYALVDRSGKHDLADLRSLQDWFLKYELKTIPDVAEVASVGGVVKEYQVVIDPQRLAQYGISLAEVKSALDASNQEAGGSSIELAEAEYMVRASGYLQTLDDFNHIVLKASENGVPVYLRDVAKVQIGPEMRRGIAELNGEGEVAGGVVILRSGKNAREVIAAVKDKLETLKSSLPEGVEIVTTYDRSQLIDRAIDNLSGKLLEEFIVVAVVCALFLWHVRSALVAIISLPLGLCIAFIVMHFQGLNANIMSLGGIAIAVGAMVDAAIVMIENAHKRLEEWQHQHPDATLDNKTRWQVITDASVEVGPALFISLLIITLSFIPIFTLEGQEGRLFGPLAFTKTYAMAGAALLAIVVIPILMGYWIRGKIPPESSNPLNRFLIRVYHPLLLKVLHWPKTTLLVAALSVLTVLWPLNKVGGEFLPQINEGDLLYMPSTLPGISAAEAASMLQKTDKLIMSVPEVARVFGKTGKAETATDSAPLEMVETTIQLKPQEQWRPGMTMDKIIEELDNTVRLPGLANLWVPPIRNRIDMLSTGIKSPIGIKVSGTVLADIDAMAEQIEEVARTVPGVASALAERLEGGRYINVEINREKAARYGMTVADVQLFVTSAVGGAMVGETVEGIARYPINLRYPQSWRDSPQALRQLPILTPMKQQITLADVADIKVSTGPSMLKTENARPTSWIYIDARDRDMVSVVHDLQKAIAEKVQLKPGTSVAFSGQFELLERANHKLKLMVPMTLMIIFVLLYLAFRRVGEALLIISSVPFALVGGIWLLWWMGFHLSVATGTGFIALAGVAAEFGVVMLMYLRHAIEAVPSLNNPQTFSEQKLDEALYHGAVLRVRPKAMTVAVIIAGLLPILWGTGAGSEVMSRIAAPMIGGMITAPLLSLFIIPAAYKLMWLHRHRVRK
# Molecular target: the molecule itself
# Assay: crystal structure
protein,measurement,value
B1,stoichiometry N,3
